Binding affinity data for 134 substances are collected here from patent publication US20250011363A1, “OPTIMIZED SHORTENED PEPTIDE THAT BINDS TO ACETYLCHOLINE RECEPTOR, AND USE THEREOF” (SKINMED CO., LTD., priority 2021, published 2025).

In this test the target is acetylcholine receptor (Homo sapiens, UniProt P02708). In words: SPR binding affinity (RU) of optimized 5mer/6mer/7mer peptides, Examples 6-7. The note with it: SPR, Resonance Units; peptides tested at 10 μM; 6mer-2 Bottom sequence. The procedure, abridged:
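Using surface plasmon resonance, binding to the acetylcholine receptor was measured for each sequence at a single 10 μM concentration. Values are response units.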
(In general: Surface plasmon resonance follows binding to a sensor surface in real time, without labels.)

Sequence of acetylcholine receptor (P02708 21-457): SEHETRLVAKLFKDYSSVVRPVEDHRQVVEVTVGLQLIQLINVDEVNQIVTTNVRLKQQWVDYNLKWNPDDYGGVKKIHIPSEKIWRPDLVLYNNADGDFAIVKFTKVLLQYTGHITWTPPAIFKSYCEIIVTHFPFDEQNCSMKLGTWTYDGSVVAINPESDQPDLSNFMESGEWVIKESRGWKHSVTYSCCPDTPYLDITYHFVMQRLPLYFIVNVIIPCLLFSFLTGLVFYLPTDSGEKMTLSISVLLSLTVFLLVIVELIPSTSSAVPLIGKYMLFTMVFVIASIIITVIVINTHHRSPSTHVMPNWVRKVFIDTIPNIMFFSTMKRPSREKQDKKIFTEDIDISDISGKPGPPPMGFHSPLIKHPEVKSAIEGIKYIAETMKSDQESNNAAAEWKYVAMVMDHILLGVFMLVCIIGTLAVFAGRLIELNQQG

6mer-2-696 (KFTKKK): the Binding affinity amounted to 20 Ru.

Consider 6mer-2-697 (KCAVKK), for which the Binding affinity is reported as 19 Ru.

On to 6mer-2-698 (KCEDKK), for which the Binding affinity came to 27 Ru.

6mer-2-699 (KNAGKR): the Binding affinity was found to be 23 Ru.

With 6mer-2-700 (RPWHKK), the Binding affinity is listed as 15 Ru.

As for 6mer-2-701 (KTWAKR), the Binding affinity is recorded as 23 Ru.

Take 6mer-2-702 (KEMIKR): the Binding affinity amounted to 18 Ru.

With 6mer-2-703 (RTMHKR), the Binding affinity is 14 Ru.

Consider 6mer-2-704 (KDWHRK), for which the Binding affinity is recorded as 20 Ru.

6mer-2-705 (RENFKK): the Binding affinity is recorded as 11 Ru.

6mer-2-706 (KFTDRK): the Binding affinity was 23 Ru.

6mer-2-707 (RTWKRK): the Binding affinity was 21 Ru.

For the substance 6mer-2-708 (RAWVKK), the Binding affinity amounted to 29 Ru.

For the substance 6mer-2-709 (RIWPKR), the Binding affinity amounted to 31 Ru.

Consider 6mer-2-710 (RNKKKK), for which the Binding affinity is listed as 14 Ru.

With 6mer-2-711 (KECGRR), the Binding affinity was 29 Ru.

For 6mer-2-712 (KIPHRR), the Binding affinity came to 29 Ru.

Consider 6mer-2-713 (RASWRR), for which the Binding affinity turned out to be 24 Ru.

As to 6mer-2-714 (KIDVRK), the Binding affinity amounted to 30 Ru.

6mer-2-715 (RATHRK): the Binding affinity stood at 32 Ru.

On to 6mer-2-716 (RTWKKR), for which the Binding affinity is listed as 18 Ru.

Consider 6mer-2-717 (KCPGKR), for which the Binding affinity was determined as 15 Ru.

In the case of 6mer-2-718 (KYTFKR), the Binding affinity was determined as 12 Ru.

In the case of 6mer-2-719 (KIKPRR), the Binding affinity is 29 Ru.

For 6mer-2-720 (RATNRK), the Binding affinity was determined as 29 Ru.

For the substance 6mer-2-721 (RHSKKK), the Binding affinity turned out to be 26 Ru.

As for 6mer-2-722 (RNEHRR), the Binding affinity is 21 Ru.

In the case of 6mer-2-723 (KEDMKR), the Binding affinity was found to be 23 Ru.

As for 6mer-2-724 (KYTMKK), the Binding affinity was determined as 24 Ru.

Turning to 6mer-2-725 (KAHMKK), the Binding affinity is given as 25 Ru.

Regarding 6mer-2-726 (KHHKKK), the Binding affinity came to 25 Ru.

With 6mer-2-727 (RDMIKR), the Binding affinity was found to be 11 Ru.

For 6mer-2-728 (RMTMKK), the Binding affinity was found to be 23 Ru.

For 6mer-2-729 (RCPDKR), the Binding affinity stood at 30 Ru.

Take 6mer-2-730 (RNTHKR): the Binding affinity was found to be 26 Ru.

6mer-2-731 (KASWKK): the Binding affinity is given as 19 Ru.

Take 6mer-2-732 (KPTWRK): the Binding affinity was determined as 24 Ru.

As to 6mer-2-733 (RTPARK), the Binding affinity came to 29 Ru.

For 6mer-2-734 (KHCHRR), the Binding affinity turned out to be 17 Ru.

6mer-2-735 (KMNAKK): the Binding affinity is given as 21 Ru.

As for 6mer-2-736 (KNNHKK), the Binding affinity worked out at 29 Ru.

As for 6mer-2-737 (KDSVRR), the Binding affinity worked out at 19 Ru.

On to 6mer-2-738 (KPWFKK), for which the Binding affinity is reported as 29 Ru.

In the case of 6mer-2-739 (RIHAKK), the Binding affinity amounted to 17 Ru.

As to 6mer-2-740 (KIDIRR), the Binding affinity amounted to 12 Ru.

For 6mer-2-741 (KNEKKR), the Binding affinity worked out at 30 Ru.

Regarding 6mer-2-742 (KNNWRR), the Binding affinity is listed as 32 Ru.

6mer-2-743 (KHTMKR): the Binding affinity is 18 Ru.

On to 6mer-2-744 (KDHPRK), for which the Binding affinity worked out at 19 Ru.

On to 6mer-2-745 (KNTERR), for which the Binding affinity was determined as 17 Ru.

Regarding 6mer-2-746 (RIKVRK), the Binding affinity is recorded as 26 Ru.

For the substance 6mer-2-747 (RANFRR), the Binding affinity was 29 Ru.

With 6mer-2-748 (RFDKKR), the Binding affinity is on record as 28 Ru.

For the substance 6mer-2-749 (KMWKRK), the Binding affinity is on record as 20 Ru.

Regarding 6mer-2-750 (RKCVKR), the Binding affinity is listed as 29 Ru.

For 6mer-2-751 (RPHWKR), the Binding affinity was found to be 12 Ru.

Consider 6mer-2-752 (KINWRR), for which the Binding affinity is given as 29 Ru.

As to 6mer-2-753 (RYEHRR), the Binding affinity was found to be 18 Ru.

With 6mer-2-754 (KADGRR), the Binding affinity was found to be 12 Ru.

In the case of 6mer-2-755 (RYNDKK), the Binding affinity is 18 Ru.

For the substance 6mer-2-756 (KPTNRK), the Binding affinity is reported as 26 Ru.

As for 6mer-2-757 (RIPNKR), the Binding affinity worked out at 19 Ru.

In the case of 6mer-2-758 (RFSFKK), the Binding affinity is on record as 18 Ru.

With 6mer-2-759 (RFDEKK), the Binding affinity is reported as 18 Ru.

6mer-2-760 (KIPVKK): the Binding affinity was 15 Ru.

With 6mer-2-761 (RTEPRK), the Binding affinity worked out at 29 Ru.

In the case of 6mer-2-762 (KFEERK), the Binding affinity is reported as 24 Ru.

As for 6mer-2-763 (KMKERR), the Binding affinity was determined as 19 Ru.

With 6mer-2-764 (RNAVKK), the Binding affinity came to 31 Ru.

Regarding 6mer-2-765 (KHSPRK), the Binding affinity is recorded as 23 Ru.

Consider 6mer-2-766 (RPTFRK), for which the Binding affinity is 23 Ru.

On to 6mer-2-767 (RICGRK), for which the Binding affinity is on record as 13 Ru.

For the substance 6mer-2-768 (KYMGRK), the Binding affinity came to 22 Ru.

6mer-2-769 (RCPFRK): the Binding affinity is on record as 13 Ru.

Regarding 6mer-2-770 (KPNMKK), the Binding affinity was determined as 24 Ru.

For the substance 6mer-2-771 (KITARR), the Binding affinity was found to be 26 Ru.

For the substance 6mer-2-772 (RHPAKK), the Binding affinity is 15 Ru.

Turning to 6mer-2-773 (KPDARR), the Binding affinity is on record as 11 Ru.

On to 6mer-2-774 (KFDARK), for which the Binding affinity is 17 Ru.

On to 6mer-2-775 (KMSMKK), for which the Binding affinity is recorded as 26 Ru.

On to 6mer-2-776 (RFPWRK), for which the Binding affinity was determined as 12 Ru.

Turning to 6mer-2-777 (KNDVRR), the Binding affinity is recorded as 31 Ru.

As for 6mer-2-778 (RNAPKK), the Binding affinity was found to be 21 Ru.

With 6mer-2-779 (KAAHRR), the Binding affinity is listed as 13 Ru.

As to 6mer-2-780 (KITIRK), the Binding affinity worked out at 31 Ru.

Regarding 6mer-2-781 (KTMNRK), the Binding affinity worked out at 28 Ru.

For the substance 6mer-2-782 (KPWPKR), the Binding affinity was found to be 18 Ru.

Take 6mer-2-783 (RDMVRK): the Binding affinity is given as 32 Ru.

In the case of 6mer-2-784 (KAEWRK), the Binding affinity came to 26 Ru.

As to 6mer-2-785 (RHCHRR), the Binding affinity is recorded as 31 Ru.

Regarding 6mer-2-786 (RMEMRK), the Binding affinity is 30 Ru.

Turning to 6mer-2-787 (RIWHKK), the Binding affinity came out at 19 Ru.

With 6mer-2-788 (KKEKKK), the Binding affinity is given as 30 Ru.

Take 6mer-2-789 (KNENRK): the Binding affinity is 24 Ru.

6mer-2-790 (RCAGRR): the Binding affinity worked out at 23 Ru.

Regarding 6mer-2-791 (KNMNRK), the Binding affinity came out at 27 Ru.

As for 6mer-2-792 (RAEDKR), the Binding affinity stood at 13 Ru.

For 6mer-2-793 (RMHKKR), the Binding affinity stood at 29 Ru.

6mer-2-794 (KAEMRR): the Binding affinity was 19 Ru.

Consider 6mer-2-795 (RTHNKR), for which the Binding affinity turned out to be 16 Ru.

6mer-2-796 (RMMARR): the Binding affinity stood at 32 Ru.

With 6mer-2-797 (RHCIKR), the Binding affinity worked out at 19 Ru.

For 6mer-2-798 (RDTPKK), the Binding affinity was found to be 17 Ru.

6mer-2-799 (KCSAKK): the Binding affinity is recorded as 13 Ru.

Take 6mer-2-800 (RTAWKK): the Binding affinity is listed as 11 Ru.

As to 6mer-2-801 (RPNIRK), the Binding affinity was 24 Ru.

With 6mer-2-802 (KETKRR), the Binding affinity came to 24 Ru.

Take 6mer-2-803 (RNKERK): the Binding affinity was determined as 18 Ru.

Regarding 6mer-2-804 (RNCGKR), the Binding affinity was determined as 21 Ru.

With 6mer-2-805 (RDTMKK), the Binding affinity came out at 12 Ru.

6mer-2-806 (KHCVRK): the Binding affinity was 30 Ru.

Regarding 6mer-2-807 (KIWNRK), the Binding affinity is reported as 28 Ru.

As to 6mer-2-808 (RKKFKK), the Binding affinity amounted to 21 Ru.

With 6mer-2-809 (REPWRR), the Binding affinity worked out at 18 Ru.

With 6mer-2-810 (KHAKKK), the Binding affinity is on record as 18 Ru.

Regarding 6mer-2-811 (KAMKRK), the Binding affinity was 16 Ru.

For the substance 6mer-2-812 (KPPEKR), the Binding affinity turned out to be 33 Ru.

In the case of 6mer-2-813 (KKMDRR), the Binding affinity came to 29 Ru.

For the substance 6mer-2-814 (RYMERK), the Binding affinity came to 28 Ru.

In the case of 6mer-2-815 (KICGRK), the Binding affinity is on record as 30 Ru.

On to 6mer-2-816 (RKMGKR), for which the Binding affinity is listed as 15 Ru.

As for 6mer-2-817 (KCNDKK), the Binding affinity is recorded as 22 Ru.

In the case of 6mer-2-818 (KTPERK), the Binding affinity was 13 Ru.

As for 6mer-2-819 (KFSVRR), the Binding affinity turned out to be 23 Ru.

Take 6mer-2-820 (RPNNKK): the Binding affinity is listed as 24 Ru.

6mer-2-821 (RPTMKR): the Binding affinity is on record as 33 Ru.

In the case of 6mer-2-822 (RCTAKK), the Binding affinity is 13 Ru.

As for 6mer-2-823 (REDWRK), the Binding affinity was determined as 25 Ru.

Consider 6mer-2-824 (RITNKR), for which the Binding affinity is 26 Ru.

As to 6mer-2-825 (KIHARK), the Binding affinity is listed as 11 Ru.

Take 6mer-2-826 (RNTPRK): the Binding affinity was 11 Ru.

Turning to 6mer-2-827 (KYAEKK), the Binding affinity was 13 Ru.

Consider 6mer-2-828 (RMKKKR), for which the Binding affinity was 32 Ru.

As for 6mer-2-829 (KKKIRR), the Binding affinity amounted to 22 Ru.
